The values below come from patent US20210196842A1, “SITE-SPECIFIC RADIOFLUORINATION OF PEPTIDES WITH 8-[18F]-FLUOROOCTANOIC ACID CATALYZED BY LIPOIC ACID LIGASE” (THE REGENTS OF THE UNIVERSITY OF CALIFORNIA, priority 2015, published 2021).

For one data set, the target named is human uPAR (Homo sapiens, UniProt Q03405). Kind of data set: Binding of 2G10 Fabs to uPAR measured using Octet instrument. On the procedure:
Measurement of 2G10-Fab-FA-LAP Affinity for uPAR: Stocks solutions were diluted to the following concentrations in 100 μL PBS: 2G10-Fab-LAP (10 μM), Lp1AΔHis (50 μM), FA (750 μM), ATP (3 mM), Mg(OAc)2 (5 mM). The resulting solution was incubated at 30° C. for 15 h and then quenched with 100 μL. 360 mM EDTA. Kinetic constants this sample, along with 2G10 and 2G10-Fab-LAP, were determined using an Octet RED384 instrument (ForteBio). Four concentrations of each Fab (500 nM, 250 nM, 100 nM and 50 nM) were tested for binding to the biotinylated antigen (human uPAR) immobilized on ForteBio streptavidin SA biosensors. All measurements were performed at room temperature in 384-well microplates and the running buffer was PBS with 0.1% (w/v) bovine serum albumin (BSA) and 0.02% (v/v) Tween 20. Biotinylated human uPAR was loaded for 180 s from a solution of 150 nM, baseline was equilibrated for 60 s, and then the Fabs were associated for 120 s followed by 300 s disassociation. Between each Fab sample, the biosensor surfaces were regenerated three times by exposing them to 10 mM glycine, pH 1.5 for 5 s followed by PBS for 5 s. Data were analyzed using a 1:1 interaction model on the ForteBio data analysis software 8.2.
For orientation: BLI is a label-free optical method that tracks binding on a fibre tip over time.

Data set [1] addresses T1, scrambled LAP peptide (Ac-EFDDWKYADVGLI).
T1 chain: EFDDWKYADVGLI

The target in data set [2] is T2, LAP peptide (Ac-GFEIDKVWYDLDA-OH).
T2 chain: GFEIDKVWYDLDA

The target of data set [3] is human urokinase plasminogen activator receptor (uPAR), biotinylated (human) (UniProt Q03405). Kind of data set: BLI (Octet RED384), biotinylated human uPAR on streptavidin biosensors, Fab in solution, 1:1 model.
Data set [4] addresses T3, human urokinase plasminogen activator receptor (uPAR), biotinylated (human, UniProt Q03405 23-303).
T3 construct: also called human uPAR; biotinylated human uPAR
The description is as above.

human uPAR, sequence (Q03405 23-305): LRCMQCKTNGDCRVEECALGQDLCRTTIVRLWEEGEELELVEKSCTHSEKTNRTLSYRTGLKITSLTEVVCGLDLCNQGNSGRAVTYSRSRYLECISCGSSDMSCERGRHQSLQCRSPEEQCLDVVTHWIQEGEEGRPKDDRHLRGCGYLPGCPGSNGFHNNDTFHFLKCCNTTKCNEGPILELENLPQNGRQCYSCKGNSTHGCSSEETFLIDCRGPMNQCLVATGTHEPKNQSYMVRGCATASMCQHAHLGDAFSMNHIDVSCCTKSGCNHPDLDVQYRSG
human urokinase plasminogen activator receptor (uPAR), biotinylated (human), sequence (Q03405 23-303 limits assumed): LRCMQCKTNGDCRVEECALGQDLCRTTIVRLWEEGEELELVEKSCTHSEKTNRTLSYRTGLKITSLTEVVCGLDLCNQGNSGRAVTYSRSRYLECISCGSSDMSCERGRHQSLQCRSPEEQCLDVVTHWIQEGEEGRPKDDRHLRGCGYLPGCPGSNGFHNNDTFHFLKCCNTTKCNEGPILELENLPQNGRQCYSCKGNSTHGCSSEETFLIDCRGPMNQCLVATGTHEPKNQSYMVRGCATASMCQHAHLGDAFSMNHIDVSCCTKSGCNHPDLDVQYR

B1: 2G10-Fab-LAP: 2G10 Fab with the LAP peptide sequence inserted at the C-terminus of the heavy chain (antibody)
heavy: QVQLQQSGPGLVKPSQTLSLTCAISGDSVSSNSAAWNWIRQSPSRGLEWLGRTYYRSKWYNDYAVSVKSRIIINPDTSKNQFSLQLNSVTPEDTAVYYCARDPGGPLDDSFDIWGQGTMVTVSSASTKGPSVFPLAPSSKSTSGGTAALGCLVKDYFPEPVTVSWNSGALTSGVHTFPAVLQSSGLYSLSSVVTVPSSSLGTQTYICNVNHKPSNTKVDKKVEPKSCAAHHHHHHAAGFEIDKVWYDLDA
light: DVVMTQSPLSLPVTPGEPASISCRSSQSLLRSNGYNYLDWYLQKPGQSPQLLIYLGSIRASGVPDRFSGSGSGTDFTLRISRVEAEDVGVYYCMQALQTPFTFGQGTKLEIKRTVAAPSVFIFPPSDEQLKSGTASVVCLLNNFYPREAKVQWKVDNALQSGNSQESVTEQDSKDSTYSLSSTLTLSKADYEKHKVYACEVTHQGLSSPVTKSFNRGEC
One may read the Kd as the equilibrium constant for the complex coming apart. On to B1, for which the Kd in the data set with human uPAR (Octet RED384, biotinylated human uPAR on streptavidin biosensors, room temperature, 1:1 interaction model, read-out: KD (nM), dissociation constants for 2G10-Fabs with uPAR) was 31 ± 2.2 nM. The “differences in binding affinity for uPAR between the Fabs” value with human uPAR (Octet, after bioconjugation with excess [19F]-FA) is “No significant differences in binding affinity”.

B2: LplA-His6 (E. coli lipoic acid ligase) (protein)
chain: MSTLRLLISDSYDPWFNLAVEECIFRQMPATQRVLFLWRNADTVVIGRAQNPWKECNTRRMEEDNVRLARRSSGGGAVFHDLGNTCFTFMAGKPEYDKTISTSIVLNALNALGVSAEASGRNDLVVKTTEGDRKVSGSAYRETKDRGFHHGTLLLNADLSRLANYLNPDKKKLAAKGITSVRSRVTNLTELLPEITHEQVCEAIREAFFAHYGERVEAEIISPDKTPDLPNFAETFARQSSWEWNFGQAPAFSHLLDERFTWGGVELHFDVEKGHITRAQVFTDSLNPAPLEALAGRLQGCLYRADMLQQECEALLVDFPEQEKELRELSTWIAGAVR
Take B2: in data set [1], the Yield/% (radio-TLC conjugation yield of [18F]-FA) worked out at 0% and the “conjugation of FA to peptide, RP-HPLC” value is “No productive reaction was observed after 60 minutes”. In data set [2], the Yield/% (radio-TLC conjugation yield of [18F]-FA) came to 91% and the “conversion of LAP to [19F]-FA-LAP, RP-HPLC” value is on record as “complete at 30 minutes”.

B3: 2G10-Fab-LAP (Fab, V domains shown)
VH: QVQLQQSGPGLVKPSQTLSLTCAISGDSVSSNSAAWNWIRQSPSRGLEWLGRTYYRSKWYNDYAVSVKSRIIINPDTSKNQFSLQLNSVTPEDTAVYYCARDPGGPLDDSFDIWGQGTMVTVSS
VL: DVVMTQSPLSLPVTPGEPASISCRSSQSLLRSNGYNYLDWYLQKPGQSPQLLIYLGSIRASGVPDRFSGSGSGTDFTLRISRVEAEDVGVYYCMQALQTPFTFGQGTKLEIKR
B3 showed a Kd in data set [3] of 31 nM.

B4: 2G10-Fab (Fab, V domains shown)
VH: QVQLQQSGPGLVKPSQTLSLTCAISGDSVSSNSAAWNWIRQSPSRGLEWLGRTYYRSKWYNDYAVSVKSRIIINPDTSKNQFSLQLNSVTPEDTAVYYCARDPGGPLDDSFDIWGQGTMVTVSS
VL: DVVMTQSPLSLPVTPGEPASISCRSSQSLLRSNGYNYLDWYLQKPGQSPQLLIYLGSIRASGVPDRFSGSGSGTDFTLRISRVEAEDVGVYYCMQALQTPFTFGQGTKLEIKR
In data set [4], B4 yielded a Kd of 38 nM.
